Reference: patent US20050119187A1 (BOARD OF SUPERVISORS OF LOUISIANA STATE UNIVERSITY AND …, published 2005)
One block for each molecule: values may come before it. *1 amine or outer side, *2 acyl side, *3 side chain or, on linkers, in order; H or OH if unused. Where no end group is shown, it is not given here. [ ]: non-standard residue; d: D form. Dbzg = C-alpha,alpha-dibenzylglycine, O=C(C(Cc1ccccc1)(Cc1ccccc1)N[*:1])[*:2]; Dibg = C-alpha,alpha-diisobutylglycine, CC(C)CC(CC(C)C)(N[*:1])C(=O)[*:2]; Dpg = CCCC(N)(CCC)C(=O)O

Assays:
[1] = molecular target: amyloidogenic peptide Aβ10-35 (UniProt P05067); experiment: cell-based or functional assay
amyloidogenic peptide Aβ10-35, sequence (P05067 681-706): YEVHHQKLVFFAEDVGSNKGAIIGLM

[2] = molecular target: the molecule itself; experiment: preliminary studies, self-aggregation (data not shown)

inhibition of aggregation (amyloid fibril formation) [1]: 5 µM
Molecule: AMY-1: Lys-Dibg-Val-Dbzg-Phe-Dpg-(Lys)6-NH2 (peptide)

B1: AMY-2: (Lys)7-Dibg-Val-Dbzg-Phe-Dpg-NH2 (peptide)
peptide: KKKKKKK[Dibg]V[Dbzg]F[Dpg]-NH2
modifications: N-terminus assumed
SMILES: CCCC(CCC)(NC(=O)[C@H](Cc1ccccc1)NC(=O)C(Cc1ccccc1)(Cc1ccccc1)NC(=O)[C@@H](NC(=O)C(CC(C)C)(CC(C)C)NC(=O)[C@H](CCCCN)NC(=O)[C@H](CCCCN)NC(=O)[C@H](CCCCN)NC(=O)[C@H](CCCCN)NC(=O)[C@H](CCCCN)NC(=O)[C@H](CCCCN)NC(=O)[C@@H](N)CCCCN)C(C)C)C(N)=O
notes: Synthetic beta-strand mimic based on Abeta16-21 (KLVFFA), with the oligolysine stretch at the N-terminus
binding result [2]: binds
